According to patent publication US20240084003A1:
Blank lines part the entries; values can stand above or below the substance they belong to.

Key:
[1] = target: human CD22 (full length, on cells) (human) (UniProt P20273); test: FACS on CHO-K1-human CD22 clone 2C4
[2] = target: human CD22 (full length, on cells) (human) (UniProt P20273); test: FACS on CHO-K1-human CD22 clone 1D9
[3] = target: human CD22 (full length, on cells) (human) (UniProt P20273); test: FACS on CHO-K1-human CD22 clone 1G5
[4] = target: human CD22 (full length, on cells) (human) (UniProt P20273); test: FACS on Raji cells, control of the m971 row
[5] = target: human CD22 (full length, on cells) (human) (UniProt P20273); test: FACS on Raji cells, control of the HA22 row
[6] = target: monkey CD22 on HEK293T-monkey CD22 cells (monkey); test: FACS, HEK293T-monkey CD22 cells
monkey CD22 on HEK293T-monkey CD22 cells (monkey), sequence (chain, as listed by the source limits assumed): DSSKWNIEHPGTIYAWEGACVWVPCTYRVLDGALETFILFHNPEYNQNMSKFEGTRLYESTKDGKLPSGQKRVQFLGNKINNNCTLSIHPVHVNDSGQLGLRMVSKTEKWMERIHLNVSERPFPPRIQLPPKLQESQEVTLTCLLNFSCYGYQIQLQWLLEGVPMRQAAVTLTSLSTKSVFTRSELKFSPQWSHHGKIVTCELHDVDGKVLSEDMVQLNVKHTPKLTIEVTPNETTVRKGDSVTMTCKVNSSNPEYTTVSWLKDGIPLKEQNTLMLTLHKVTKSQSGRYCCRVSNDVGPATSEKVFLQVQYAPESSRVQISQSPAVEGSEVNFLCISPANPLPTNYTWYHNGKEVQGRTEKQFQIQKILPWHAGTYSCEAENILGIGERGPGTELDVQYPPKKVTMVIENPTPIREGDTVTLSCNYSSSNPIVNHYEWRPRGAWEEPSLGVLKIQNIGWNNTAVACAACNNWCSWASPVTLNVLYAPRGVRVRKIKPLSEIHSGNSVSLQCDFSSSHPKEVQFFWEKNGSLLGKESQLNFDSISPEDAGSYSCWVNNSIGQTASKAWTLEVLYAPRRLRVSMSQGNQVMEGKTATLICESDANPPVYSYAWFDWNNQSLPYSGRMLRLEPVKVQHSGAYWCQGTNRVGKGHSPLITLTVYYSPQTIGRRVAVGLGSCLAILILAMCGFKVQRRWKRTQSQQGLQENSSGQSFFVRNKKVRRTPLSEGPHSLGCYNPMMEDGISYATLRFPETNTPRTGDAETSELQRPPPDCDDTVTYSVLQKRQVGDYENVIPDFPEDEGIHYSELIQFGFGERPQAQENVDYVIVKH

[7] = target: human CD22, full length, on CHO-K1-human CD22 2C4 cells (human) (UniProt P20273); test: FACS, CHO-K1-human CD22 2C4 cells
human CD22, full length, on CHO-K1-human CD22 2C4 cells (human), sequence (P20273 20-847 limits assumed): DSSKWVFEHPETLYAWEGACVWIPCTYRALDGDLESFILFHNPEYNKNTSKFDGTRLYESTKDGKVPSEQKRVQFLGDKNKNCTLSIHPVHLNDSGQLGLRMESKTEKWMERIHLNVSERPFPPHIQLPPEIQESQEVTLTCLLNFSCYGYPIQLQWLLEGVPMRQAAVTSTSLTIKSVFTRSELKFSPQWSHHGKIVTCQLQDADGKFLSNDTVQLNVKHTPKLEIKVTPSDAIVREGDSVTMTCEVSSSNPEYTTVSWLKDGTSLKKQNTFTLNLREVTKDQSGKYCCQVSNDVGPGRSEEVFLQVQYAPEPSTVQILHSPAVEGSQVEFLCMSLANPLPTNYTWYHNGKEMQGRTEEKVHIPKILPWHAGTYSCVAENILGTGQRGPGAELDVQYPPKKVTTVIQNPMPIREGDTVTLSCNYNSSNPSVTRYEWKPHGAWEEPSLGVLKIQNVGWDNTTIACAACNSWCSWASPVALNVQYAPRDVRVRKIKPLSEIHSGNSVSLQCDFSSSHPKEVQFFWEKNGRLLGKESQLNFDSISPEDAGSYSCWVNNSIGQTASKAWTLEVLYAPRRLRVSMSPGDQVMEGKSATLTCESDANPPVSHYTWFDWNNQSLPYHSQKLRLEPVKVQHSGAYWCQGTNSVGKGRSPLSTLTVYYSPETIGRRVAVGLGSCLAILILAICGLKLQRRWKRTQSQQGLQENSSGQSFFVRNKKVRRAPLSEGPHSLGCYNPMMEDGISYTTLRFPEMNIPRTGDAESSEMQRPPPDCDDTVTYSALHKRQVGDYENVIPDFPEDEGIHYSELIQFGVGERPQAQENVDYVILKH

[8] = target: human CD22, endogenous on Raji cells (human) (UniProt P20273); test: FACS, Raji cells
human CD22, endogenous on Raji cells (human), sequence (P20273 20-847): as the sequence (P20273 20-847 limits assumed) above

human CD22 (full length, on cells) (human), sequence (P20273 20-847 limits assumed): as above

- Cell mean fluorescence intensity [1]: 66 MFI
- Cell mean fluorescence intensity [2]: 66 MFI
- Cell mean fluorescence intensity [3]: 66 MFI
- Cell mean fluorescence density [4]: 44 MFI
- Cell mean fluorescence density [5]: 44 MFI
Substance: IgG subtype control (antibody)

- Maximum mean fluorescence intensity [6]: 129 MFI
Substance: anti-hel-hIgG1 (antibody)

- Maximum mean fluorescence intensity [7]: 150 MFI
- Maximum mean fluorescence intensity [8]: 564 MFI
Substance: anti-hel-hIgG1 (negative control antibody against chicken egg lysozyme)
